Test results taken from PMC9076864, “Cryo-EM structures of thylakoid-located voltage-dependent chloride channel VCCN1” (Nature Communications, 2022).

Biological target: the molecule itself
Assay: cryo-EM structure; single-particle cryo-EM of the channel reconstituted in MSP1E3D1/SoyPC nanodiscs; 50 mM Tris pH 8.0, 150 mM NaCl; C5 symmetry imposed

B1: Malus domestica VCCN1, N-terminally truncated "wild-type" construct (natural protein)
chain: MPNPSPPSSSSPVQTLISILRIIPDWSDRTQERGMRQHRTLYDHEKWMHHRSSYRHLRHLLSSLSSRVILSLIPPVIAFTLVAVVIASYNTAVALDLLPGIFPLLRSSSLPYQLTAPALALLLVFRTEASYSRFEEGRKAWTEVIAGANDFARQIISSVETSGDAQLKKALLQYIVAFPVALKCHVIYGSDIARDLQNLLEVDDLLVVLNSKHRPGCIIQFISRSLQLLKLEESRRIMLQSKISCFHEGIGICEQLIGTPIPLSYTRLTSRFLVLWHLTLPIILWDDCHWIVVPATFISAASLFCIEQVGVLIEEPFPMLALDDLCNSVRNNVQEALASEKLIRARLAAKGRIQSEQQFQNGQPRPENLYFQ
stoichiometry N: 5
